Experimental data reported in the supplement of paper PMC10065799, “High-throughput profiling of sequence recognition by tyrosine kinases and SH2 domains using bacterial peptide display” (eLife, 2023).

Tests used:
[1] = system: c-Src; assay: phosphorylation enrichment, bacterial display (enrichment ratio); higher = better substrate or ligand; peptides without Tyr show the background
[2] = molecular target: Hck (UniProt P08631); assay: as above
[3] = system: Fer (mouse); assay: as above
[4] = molecular target: FGFR1 (UniProt P11362); assay: as above
[5] = molecular target: MERTK (UniProt Q12866); assay: as above
[6] = molecular target: Jak2 (UniProt O60674); assay: as above
[7] = system: AncSZ; assay: as above
[8] = molecular target: Fyn (UniProt P06241); assay: as above
[9] = molecular target: EPHB2 (UniProt P29323); assay: as above
[10] = molecular target: FGFR3 (UniProt P22607); assay: as above
[11] = molecular target: Fes (UniProt P07332); assay: as above
[12] = system: c-Abl (mouse); assay: as above
[13] = molecular target: EPHB1 (UniProt P54762); assay: as above
[14] = molecular target: c-Src SH2; assay: SH2 binding enrichment of the phosphorylated peptide, bacterial display (enrichment ratio); higher = better substrate or ligand; peptides without Tyr show the background
[15] = molecular target: Grb2 SH2 (UniProt P62993); assay: as above
[16] = molecular target: SHP2-C SH2; assay: as above
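For SH2 binding enrichment of the phosphorylated peptide, bacterial display in this document: peptide library displayed on the E. coli surface as eCPX fusions, selected cells deep-sequenced, score is each peptide's frequency after selection divided by its frequency in the input.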
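For phosphorylation enrichment, bacterial display in this document: 11-residue human phosphosite peptides and single-mutation variants displayed on the E. coli surface, counted by deep sequencing, each peptide's frequency after selection divided by its frequency in the unselected input library; frequency after pTyr selection over input frequency; kinase dosed for 20-30% of maximal phosphorylation in three min.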

Chain of MERTK (Q12866 whole entry, looked up): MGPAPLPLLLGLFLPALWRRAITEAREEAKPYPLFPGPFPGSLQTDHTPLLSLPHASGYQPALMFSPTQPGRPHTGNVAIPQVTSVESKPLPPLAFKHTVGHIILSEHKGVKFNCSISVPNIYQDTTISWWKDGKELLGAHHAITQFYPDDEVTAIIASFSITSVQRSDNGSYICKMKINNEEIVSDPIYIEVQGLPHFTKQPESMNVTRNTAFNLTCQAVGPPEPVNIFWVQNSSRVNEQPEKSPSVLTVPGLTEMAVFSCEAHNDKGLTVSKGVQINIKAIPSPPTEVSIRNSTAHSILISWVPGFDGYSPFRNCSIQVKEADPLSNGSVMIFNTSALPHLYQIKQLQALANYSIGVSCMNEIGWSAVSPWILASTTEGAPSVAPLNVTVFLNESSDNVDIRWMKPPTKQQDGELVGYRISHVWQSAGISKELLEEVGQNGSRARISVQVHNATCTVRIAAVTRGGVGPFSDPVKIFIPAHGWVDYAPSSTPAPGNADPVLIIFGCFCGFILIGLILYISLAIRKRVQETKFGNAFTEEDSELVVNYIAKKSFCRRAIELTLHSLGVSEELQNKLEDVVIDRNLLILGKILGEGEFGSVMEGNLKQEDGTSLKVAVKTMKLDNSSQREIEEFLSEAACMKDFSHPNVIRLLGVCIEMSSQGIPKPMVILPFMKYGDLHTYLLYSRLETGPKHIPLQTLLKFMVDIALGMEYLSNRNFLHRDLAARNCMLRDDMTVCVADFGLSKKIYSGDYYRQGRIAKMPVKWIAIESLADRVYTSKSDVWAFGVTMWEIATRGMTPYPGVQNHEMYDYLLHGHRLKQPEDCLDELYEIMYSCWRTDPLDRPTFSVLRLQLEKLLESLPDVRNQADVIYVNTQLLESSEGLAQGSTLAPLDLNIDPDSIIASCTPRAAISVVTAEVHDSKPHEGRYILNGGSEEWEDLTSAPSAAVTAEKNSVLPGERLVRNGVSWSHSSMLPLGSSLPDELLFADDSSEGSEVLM
Chain of Grb2 SH2 (P62993 whole entry, looked up): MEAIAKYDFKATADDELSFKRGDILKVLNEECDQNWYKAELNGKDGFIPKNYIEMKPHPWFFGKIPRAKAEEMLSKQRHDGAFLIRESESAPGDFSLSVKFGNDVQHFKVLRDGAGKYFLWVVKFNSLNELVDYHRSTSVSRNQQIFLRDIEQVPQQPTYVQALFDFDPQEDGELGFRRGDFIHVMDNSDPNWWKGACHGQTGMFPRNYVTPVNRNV
Chain of Fes (P07332 whole entry, looked up): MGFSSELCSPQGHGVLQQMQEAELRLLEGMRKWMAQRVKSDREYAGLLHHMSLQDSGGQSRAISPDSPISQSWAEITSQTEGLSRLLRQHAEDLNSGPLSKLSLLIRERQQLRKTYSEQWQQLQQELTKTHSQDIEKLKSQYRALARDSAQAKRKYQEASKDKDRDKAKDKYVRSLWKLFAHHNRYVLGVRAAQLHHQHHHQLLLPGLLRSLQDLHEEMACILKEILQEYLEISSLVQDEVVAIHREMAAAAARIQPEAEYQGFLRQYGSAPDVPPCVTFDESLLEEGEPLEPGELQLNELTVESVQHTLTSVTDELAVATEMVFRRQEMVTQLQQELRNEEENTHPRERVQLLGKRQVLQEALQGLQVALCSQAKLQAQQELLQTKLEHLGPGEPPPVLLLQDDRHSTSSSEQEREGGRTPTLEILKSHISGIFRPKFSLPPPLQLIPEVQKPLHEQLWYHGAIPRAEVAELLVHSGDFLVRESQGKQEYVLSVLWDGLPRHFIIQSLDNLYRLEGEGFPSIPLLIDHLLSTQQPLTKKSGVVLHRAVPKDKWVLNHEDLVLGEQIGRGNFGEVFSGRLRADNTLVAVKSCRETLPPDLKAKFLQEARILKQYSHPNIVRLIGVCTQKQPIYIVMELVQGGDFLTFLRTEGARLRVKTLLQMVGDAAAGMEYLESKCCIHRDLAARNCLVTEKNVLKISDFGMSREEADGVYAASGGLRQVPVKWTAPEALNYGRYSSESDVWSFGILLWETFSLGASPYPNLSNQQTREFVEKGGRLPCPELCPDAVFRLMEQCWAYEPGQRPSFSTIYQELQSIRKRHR
Chain of FGFR1 (P11362 whole entry, looked up): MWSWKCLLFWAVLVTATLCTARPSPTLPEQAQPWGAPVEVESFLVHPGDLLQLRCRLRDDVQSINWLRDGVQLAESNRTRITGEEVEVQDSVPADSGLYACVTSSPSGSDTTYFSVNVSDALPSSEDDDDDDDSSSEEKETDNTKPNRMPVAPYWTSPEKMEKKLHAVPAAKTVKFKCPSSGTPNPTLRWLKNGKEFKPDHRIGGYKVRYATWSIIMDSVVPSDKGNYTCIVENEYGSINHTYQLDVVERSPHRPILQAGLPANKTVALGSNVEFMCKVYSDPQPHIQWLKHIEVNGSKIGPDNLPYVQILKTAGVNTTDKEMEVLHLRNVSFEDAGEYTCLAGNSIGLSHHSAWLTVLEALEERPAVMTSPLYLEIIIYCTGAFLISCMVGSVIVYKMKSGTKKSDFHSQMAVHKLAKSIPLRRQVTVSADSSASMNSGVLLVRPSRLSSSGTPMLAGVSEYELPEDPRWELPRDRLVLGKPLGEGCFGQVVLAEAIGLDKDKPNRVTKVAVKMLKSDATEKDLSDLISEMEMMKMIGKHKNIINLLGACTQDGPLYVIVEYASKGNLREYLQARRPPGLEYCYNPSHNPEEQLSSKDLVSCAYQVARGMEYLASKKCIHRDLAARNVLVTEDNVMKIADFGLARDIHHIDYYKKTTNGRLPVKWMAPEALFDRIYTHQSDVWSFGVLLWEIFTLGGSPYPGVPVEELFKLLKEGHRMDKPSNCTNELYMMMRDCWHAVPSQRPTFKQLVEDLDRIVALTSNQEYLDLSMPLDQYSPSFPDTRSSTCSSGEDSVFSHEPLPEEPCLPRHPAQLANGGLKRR
Chain of EPHB1 (P54762 whole entry, looked up): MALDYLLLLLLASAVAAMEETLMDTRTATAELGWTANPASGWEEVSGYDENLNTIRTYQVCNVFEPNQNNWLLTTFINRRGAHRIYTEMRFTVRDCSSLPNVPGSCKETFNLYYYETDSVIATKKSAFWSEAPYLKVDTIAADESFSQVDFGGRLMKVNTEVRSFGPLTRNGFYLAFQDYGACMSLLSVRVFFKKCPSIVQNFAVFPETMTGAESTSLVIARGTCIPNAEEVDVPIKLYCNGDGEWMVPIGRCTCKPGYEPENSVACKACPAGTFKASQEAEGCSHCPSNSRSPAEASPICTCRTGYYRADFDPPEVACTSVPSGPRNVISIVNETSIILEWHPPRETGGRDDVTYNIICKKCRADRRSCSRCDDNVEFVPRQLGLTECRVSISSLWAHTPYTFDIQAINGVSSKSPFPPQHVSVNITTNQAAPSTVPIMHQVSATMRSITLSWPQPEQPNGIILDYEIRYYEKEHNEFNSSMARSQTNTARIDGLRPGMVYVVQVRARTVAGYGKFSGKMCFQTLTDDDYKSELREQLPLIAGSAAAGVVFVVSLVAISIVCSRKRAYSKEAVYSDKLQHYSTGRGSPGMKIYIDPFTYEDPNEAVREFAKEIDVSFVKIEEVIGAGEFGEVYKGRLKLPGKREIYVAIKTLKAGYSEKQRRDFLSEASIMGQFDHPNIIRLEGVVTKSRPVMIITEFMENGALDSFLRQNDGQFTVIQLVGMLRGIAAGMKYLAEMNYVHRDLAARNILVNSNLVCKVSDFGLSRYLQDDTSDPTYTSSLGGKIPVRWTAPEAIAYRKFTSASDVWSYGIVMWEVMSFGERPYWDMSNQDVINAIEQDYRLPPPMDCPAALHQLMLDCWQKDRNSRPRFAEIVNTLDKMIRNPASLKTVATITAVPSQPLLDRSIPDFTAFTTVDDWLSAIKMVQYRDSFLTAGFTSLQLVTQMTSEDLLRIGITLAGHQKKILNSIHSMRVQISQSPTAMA
Chain of Fyn (P06241 whole entry, looked up): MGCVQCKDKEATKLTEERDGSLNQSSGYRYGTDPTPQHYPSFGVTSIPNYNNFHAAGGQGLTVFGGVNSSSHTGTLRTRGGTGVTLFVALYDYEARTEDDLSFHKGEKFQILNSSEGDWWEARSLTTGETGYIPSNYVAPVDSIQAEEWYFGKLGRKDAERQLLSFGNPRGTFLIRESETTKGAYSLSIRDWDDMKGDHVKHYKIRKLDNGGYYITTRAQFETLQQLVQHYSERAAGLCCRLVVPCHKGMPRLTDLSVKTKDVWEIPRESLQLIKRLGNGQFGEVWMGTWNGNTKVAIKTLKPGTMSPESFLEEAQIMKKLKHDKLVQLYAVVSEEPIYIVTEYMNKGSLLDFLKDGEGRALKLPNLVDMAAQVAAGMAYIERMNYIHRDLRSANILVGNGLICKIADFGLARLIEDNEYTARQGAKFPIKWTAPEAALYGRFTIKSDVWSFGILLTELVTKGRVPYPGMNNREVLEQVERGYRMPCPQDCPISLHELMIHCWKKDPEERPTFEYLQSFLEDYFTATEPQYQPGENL
Chain of Hck (P08631 whole entry, looked up): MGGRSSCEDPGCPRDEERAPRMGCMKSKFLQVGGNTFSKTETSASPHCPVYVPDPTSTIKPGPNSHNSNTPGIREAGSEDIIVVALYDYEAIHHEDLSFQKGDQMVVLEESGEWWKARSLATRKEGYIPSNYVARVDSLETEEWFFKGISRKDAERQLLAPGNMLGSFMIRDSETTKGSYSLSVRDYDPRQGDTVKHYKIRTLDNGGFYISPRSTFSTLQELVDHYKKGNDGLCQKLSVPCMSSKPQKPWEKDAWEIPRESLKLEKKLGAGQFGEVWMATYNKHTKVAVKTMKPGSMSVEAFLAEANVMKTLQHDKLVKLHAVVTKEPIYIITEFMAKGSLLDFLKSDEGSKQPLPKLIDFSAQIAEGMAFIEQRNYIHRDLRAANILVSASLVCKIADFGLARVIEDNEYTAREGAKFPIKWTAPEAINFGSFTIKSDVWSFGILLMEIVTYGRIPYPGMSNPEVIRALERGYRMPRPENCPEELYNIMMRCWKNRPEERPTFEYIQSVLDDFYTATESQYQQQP

Sequence	phosphorylation enrichment [1]	phosphorylation enrichment [2]	phosphorylation enrichment [3]	phosphorylation enrichment [4]	phosphorylation enrichment [5]	phosphorylation enrichment [6]	phosphorylation enrichment [7]	phosphorylation enrichment [8]	phosphorylation enrichment [9]	phosphorylation enrichment [10]	phosphorylation enrichment [11]	phosphorylation enrichment [12]	phosphorylation enrichment [13]	SH2 binding enrichment [14]	SH2 binding enrichment [15]	SH2 binding enrichment [16]
AADGRYEVLFL [SEMA3F_Y478]	0.489	0.792	2.97	0.62	0.749	1.02	1.07	0.447	0.683	0.822	1.01	0.624	0.731	7	0.832	0.617
AALVQYFMEHH [PTPN11_Y80_E76A_YF]	0.441	0.519	0.476	0.573	0.401	0.772	0.798	0.439	0.541	0.727	1.05	0.665	0.623	0.946	1.34	1.42
AAVLNYKAWRD [GRIN2A_Y737_G740W]	0.396	0.436	0.338	0.534	0.386	0.646	0.839	0.35	0.276	0.462	0.656	0.808	0.408	0.481	1.35	0.915
ADCRFYTFPQM [GAMT_Y223_A224T_YF]	1.24	0.534	1.99	0.584	5.08	1.2	1.88	0.811	0.813	0.895	1.48	0.784	1.07	0.513	1.25	0.717
ADKSAYLMGVN [MYH7_Y386_L390V]	0.41	0.401	0.396	0.399	0.338	0.58	0.574	0.405	0.466	0.466	0.661	0.572	0.418	0.32	0.786	0.594
ADRLEYSRTGL [MMUT_Y287_G284R]	0.459	0.346	0.338	0.764	0.728	1.25	0.66	0.408	0.722	0.651	0.599	0.498	0.309	0.517	0.859	1.14
ADSLRYIFPKL [EIF2B3_Y92_YF]	0.457	0.413	0.31	0.398	0.459	0.64	0.552	0.474	0.381	0.497	0.681	0.566	0.43	0.667	0.966	1.41
AEEPIYIIVPA [BMXtide_2014]	8.8	7.96	11.1	13.9	9.02	2.47	4.75	10.1	24.2	12.1	2.98	8.02	18.5	0.83	1.05	0.956
AELVRYFMEHH [PTPN11_Y80_Q79R_YF]	0.433	0.46	0.427	0.454	0.421	0.621	0.653	0.414	0.526	0.471	0.883	0.493	0.458	0.625	0.807	0.632
AESPEHVHMFT [FAM111A_Y511_Y511H_YF]	0.36	0.447	0.431	0.433	0.416	0.754	0.746	0.446	0.569	0.614	1.01	0.661	0.566	0.421	0.786	0.54
AEYGLYGAMVW [VSX2_Y222_R227W]	4.49	5.32	4.58	0.521	2.66	1.25	1.45	6.22	4	0.86	1.37	1.1	1.33	0.419	0.62	0.696
AFDNLYFWDQD [ERBB2_Y1221_YF]	5.12	4.26	1.68	6.87	5.13	1.56	2.1	5.76	1.25	6.95	1.93	0.981	1.42	0.495	0.865	0.59
AFEQQYSPIPK [NOX1_Y373_R378K]	0.802	3.14	0.435	0.744	0.874	0.534	0.772	0.514	0.411	0.575	0.741	0.612	0.766	0.74	0.856	0.569
AFLEDYFTSTK [SRC_Y522_E527K]	0.463	0.52	0.356	0.639	0.504	1.26	1.1	0.474	0.492	0.774	0.97	0.591	0.378	0.553	0.947	1.07
